Measured values reported in article PMC5497811 (Nature, 2017).

B1: BT1763 (SusC-like), full-length, in freshly purified BT1762-1763 complex (natural protein, Bacteroides thetaiotaomicron, UniProt Q8A6W3 26-1041, looked up)
chain: GQNITVKGNVTSKTDGQPIIGASVVETTATTNGTITDFDGNFTLSVPVNSTLKITYIGYKPVTVKAAAIVNVLLEEDTQMVDEVVVTGYTTQRKADLTGAVSVVKVDEIQKQGENNPVKALQGRVPGMNITADGNPSGSATVRIRGIGTLNNNDPLYIIDGVPTKAGMHELNGNDIESIQVLKDAASASIYGSRAANGVIIITTKQGKKGQIKINFDASVSASMYQSKMNVLNTEQYGRAMWQAYVNDGENPNGNALGYAYNWGYNADGNPVLYGMTLSKYLDSKNTMPVADTDWFDEITRTGVIQQYNLSVSNGSEKGSSFFSLGYYKNLGVIKDTDFDRFSARMNSDYKLIDDILTIGQHFTLNRTSEVQAPGGIIETALDIPSAIPVYASDGSWGGPVGGWPDRRNPRAVLEYNKDNRYTYWRMFGDAYVNLTPFKGFNLRSTFGLDYANKQARYFTYPYQEGTQTNNGKSAVEAKQEHWTKWMWNAIATYQLEVGKHRGDVMIGMELNREDDSHFSGYKEDFSILTPDYMWPDAGSGTAQAYGAGEGYSLVSFFGKMNYSYADRYLLSLTLRRDGSSRFGKNHRYATFPSVSLGWRITQENFMKELTWLDDLKLRASWGQTGNQEISNLARYTIYAPNYGTTDSFGGQSYGTAYDITGSNGGGVLPSGFKRNQIGNDNIKWETTTQTNVGIDFSLFKQSLYGSLEYYYKKATDILTEMAGVGVLGEGGSRWINSGAMKNQGFEFNLGYRNKTAFGLTYDLNGNISTYRNEILELPETVAANGKFGGNGVKSVVGHTYGAQVGYIADGIFKSQDEVDNHATQEGAAVGRIRYRDIDHNGVIDERDQNWIYDPTPSFSYGLNIYLEYKNFDLTMFWQGVQGVDIISDVKKKSDFWSASNVGFLNKGTRLLNAWSPTNPNSDIPALTRSDTNNEQRVSTYFVENGSFLKLRNIQLGYTVPAVISKKMRMDRLRFYCSAQNLLTIKSKNFTGEDPENPNFSYPIPVNITFGLNIGF
B2: BT1762 (SusD-like) with C-terminal 4xAla linker and 6xHis-tag, native from B. theta (natural protein, Bacteroides thetaiotaomicron, UniProt Q8A6W4 19-570, looked up)
chain: CDDFLDRQVPQGIVTGDQIASPEYVDNLVISAYAIWATGDDINSSFSLWNYDVRSDDCYKGGSGTEDGGVFNALEISKGINTTDWNINDIWKRLYQCITRANTALQSLDQMDEKTYPLKNQRIAEMRFLRGHAHFMLKQLFKKIVIVNDENMEPDAYNELSNTTYTNDEQWQKIADDFQFAYDNLPEVQIEKGRPAQAAAAAYLAKTYLYKAYRQDGADNALTGINEEDLKQVVKYTDPLIMAKGGYGLETDYSMNFLPQYENGAESVWAIQYSINDGTYNGNLNWGMGLTTPQILGCCDFHKPSQNLVNAFKTDSQGKPLFSTYDNENYEVATDNVDPRLFHTVGMPGFPYKYNEGYIIQKNDDWSRSKGLYGYYVSLKENVDPDCDCLKKGSYWASSLNHIVIRYADVLLMRAEALIQLNDGRITDAISLINEVRSRAAGSTMLIFNYKEDYGVNFKVTPYDLKAYAQDEAMKMLKWERRVEFGMESSRFFDLVRWGEAKDVINAYYVTEASRCSIYKNAGFTENKNEYLPVPFEQISASNGNYTQNFGW

Key:
[1] = target: BT2264 (SusC-like TonB-dependent transporter) (Bacteroides thetaiotaomicron); assay: crystal structure
native MS = target: the molecule itself; assay: native MS
[2] = target: B1; assay: SDS-PAGE of non-boiled samples

Which stoichiometry N [1] does the source give for “BT2264 (SusC-like TonB-dependent transporter) (natural protein)” here?
The stoichiometry N was 2.

B1 was tested. Which “stoichiometry N” value (native MS) did it give?
The value was 2.

Does B2 bind [2]?
Result: binds
